Source: PMC10234888, “Upregulation of glycolytic enzyme PFKFB3 by deubiquitinase OTUD4 promotes cardiac fibrosis post myocardial infarction” (Journal of Molecular Medicine (Berlin, Germany), 2023)

Target: T1, OTUD4 human recombinant protein (human, UniProt Q01804 1-1114)
T1 construct: deubiquitinase OTUD4, human, recombinant protein from Origene; No catalogue number is printed; also called deubiquitinase OTUD4; source: bought: Origene Technologies, Inc
T1 sequence (looked up): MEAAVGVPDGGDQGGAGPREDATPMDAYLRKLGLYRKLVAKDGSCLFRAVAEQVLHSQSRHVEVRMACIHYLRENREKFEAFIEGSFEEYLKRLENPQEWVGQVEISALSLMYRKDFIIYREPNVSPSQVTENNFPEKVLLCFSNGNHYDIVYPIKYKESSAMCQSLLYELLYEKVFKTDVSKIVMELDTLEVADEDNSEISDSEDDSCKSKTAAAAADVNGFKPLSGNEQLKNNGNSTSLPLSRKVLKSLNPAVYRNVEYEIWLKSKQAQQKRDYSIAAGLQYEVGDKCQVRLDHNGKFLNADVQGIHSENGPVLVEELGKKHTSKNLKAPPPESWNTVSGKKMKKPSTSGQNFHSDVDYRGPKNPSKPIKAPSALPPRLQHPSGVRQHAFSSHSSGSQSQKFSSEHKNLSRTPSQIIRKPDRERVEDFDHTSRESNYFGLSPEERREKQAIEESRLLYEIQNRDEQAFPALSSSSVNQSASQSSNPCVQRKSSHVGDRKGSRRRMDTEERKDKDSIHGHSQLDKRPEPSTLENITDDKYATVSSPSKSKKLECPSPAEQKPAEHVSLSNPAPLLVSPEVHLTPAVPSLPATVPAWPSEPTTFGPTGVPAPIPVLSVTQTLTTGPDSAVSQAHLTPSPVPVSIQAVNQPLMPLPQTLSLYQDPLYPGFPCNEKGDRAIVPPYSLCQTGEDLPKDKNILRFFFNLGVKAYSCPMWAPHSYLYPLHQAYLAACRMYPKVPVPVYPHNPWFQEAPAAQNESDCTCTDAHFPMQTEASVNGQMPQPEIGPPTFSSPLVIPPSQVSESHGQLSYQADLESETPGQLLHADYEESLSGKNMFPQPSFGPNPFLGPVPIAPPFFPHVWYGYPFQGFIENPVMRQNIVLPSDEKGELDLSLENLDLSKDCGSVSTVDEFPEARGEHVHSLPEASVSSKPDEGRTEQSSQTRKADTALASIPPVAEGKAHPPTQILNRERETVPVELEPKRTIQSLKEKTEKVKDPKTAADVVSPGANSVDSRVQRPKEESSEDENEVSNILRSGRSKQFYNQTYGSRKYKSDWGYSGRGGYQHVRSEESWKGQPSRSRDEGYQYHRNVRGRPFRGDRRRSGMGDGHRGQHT
Assay: SPR; Biacore T200; OTUD4 on a CM5 chip by amine coupling; various concentrations of PFKFB3 injected over the OTUD4 surface
Details: both partners purified

B1: human recombinant PFKFB3 protein (enzyme, UniProt Q16875 1-520, looked up)
chain: MPLELTQSRVQKIWVPVDHRPSLPRSCGPKLTNSPTVIVMVGLPARGKTYISKKLTRYLNWIGVPTKVFNVGEYRREAVKQYSSYNFFRPDNEEAMKVRKQCALAALRDVKSYLAKEGGQIAVFDATNTTRERRHMILHFAKENDFKAFFIESVCDDPTVVASNIMEVKISSPDYKDCNSAEAMDDFMKRISCYEASYQPLDPDKCDRDLSLIKVIDVGRRFLVNRVQDHIQSRIVYYLMNIHVQPRTIYLCRHGENEHNLQGRIGGDSGLSSRGKKFASALSKFVEEQNLKDLRVWTSQLKSTIQTAEALRLPYEQWKALNEIDAGVCEELTYEEIRDTYPEEYALREQDKYYYRYPTGESYQDLVQRLEPVIMELERQENVLVICHQAVLRCLLAYFLDKSAEEMPYLKCPLHTVLKLTPVAYGCRVESIYLNVESVCTHRERSEDAKKGPNPLMRRNSVTPLASPEPTKKPRINSFEEHVASTSAALPSCLPPEVPTQLPGQNMKGSRSSADSSRKH
notes: phosphofructokinase-2/fructose-2,6-bisphosphatase 3 (PFKFB3), human, recombinant protein from Origene; No catalogue number is printed; also called phosphofructokinase-2/fructose-2,6-bisphosphatase 3; source: bought: Origene
  Kd: 250 nM
